Assay results from the nanobody polyreactivity screen of Harvey et al. (2022).

Experiment: yeast display, Sf9 membrane polyspecificity reagent, FACS + sequencing; frameworks hold sequencing errors
Method in brief: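 Using colony PCR, genes from sorted yeast display clones were amplified, then sequenced on MiSeq at 2 × 250 and filtered by CDR length. The clones had been stained with 10% biotinylated, detergent-solubilized Sf9 membrane reagent for 1 hour at 4 °C and sorted by FACS into low and high (top ~1%) gates on anti-HA and streptavidin fluorescence. Polyreactivity labels come from the gate of origin.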

QVQRVESGGGLVQAGASLRLSCAASGSTFLTNAMGWYIQAPGKERELVAAITWSGTSTYADSVKGRFTISRDNAKNTVYLQMNSLKPEDTAVYYCIADGWYYPTDDYWGQGTQVTVSS
polyreactivity (PSR sort gate): low polyreactivity

QVQLVESGGGLVQAGGSLRLSCAASGLIFQHNAMGWYRQAPGKEMELVAAISRSAGSTYYADSVKGRFTISRDKAKNTVYLQMNSLKPEDTAVYYCARQYGYQPVRYGYWGQGTQVTVSS
polyreactivity (PSR sort gate): low polyreactivity

QVQLVESGAGIVQAGGSLRLSCAASGSTFYSYTMGWYRQAPGKERELVAAITSTGGRTYYADSVKGRFTISRDNAKITVYLQMNSLKPEDTAVYYCRRPYLYGMYYWGQGTQVTVSS
polyreactivity (PSR sort gate): high polyreactivity

QVQLVESGGGLVQAGGSLRLSCAASGGTFYGYAMGWYRQAPGKERELVAAISYNGGNTYYADSVKGRFTISRDNAKNTVYLQMNSLKAEDTAVYYCAAGYSYRYGYWGQGTQLTVSS
polyreactivity (PSR sort gate): low polyreactivity

QVQLVESGGGLVQAGGSLRLSCAASGYIFGQYAMGWYRQAPGKERELVADITRGGDTYYADSVKGRFTISRDNAKNTVYLQMNSLKPEDTAVYYCAAEQGRTSYRYYYWGQGTQVTVSS
polyreactivity (PSR sort gate): high polyreactivity

QVQLVESGGGLVQAGGSLRLSCAASGRIFVYNAMGWYRQAPGKERELVASISWSGDSTYADSVKGRFTISRDNAKNTVYLQMNSLKPEDTAVYYCAAYSQADYQNMDYWGQGTQVTVSS
polyreactivity (PSR sort gate): low polyreactivity

QVQLVESGGGLVQAGGSLRLSCAASGSTFKYYAMGWSRQAPGKERELVAAISYRGGRTYYADSVKGRFTISRDNAKNTVYLQMNSLKPEDTAVYYCPAVKPYYIQYQGSAGYDYWGQGTQVTVSS
polyreactivity (PSR sort gate): high polyreactivity

QVHLVESCGGLVQARGSLRLSCAASGSTIDYNSMGWYRLAPWKEREMVATITSSVGSTYYEDSVKGRYTISRDNAKNTVDLHMNCVKPEDTAVYYCAADYDYPDYYAPSWRRYTYWGQGTQVTVSS
polyreactivity (PSR sort gate): low polyreactivity

QVQLVESGGGLVQAGGSLRLSCAASGRTFGYYVMGWYRQAPGKERELVAAISRSGGTTYYADSVKGRFTISRDNAKNTVYLQMNSLKPEDTAVYYCATDSRTGYDYWGQGTQVTVSS
polyreactivity (PSR sort gate): high polyreactivity

QVQLVESGGGLVQAGGSLRLSCAASGRTFRYAMGWYRQSPGKERELVAGITTRGTSTYYADSVKGRFTISRDNAKNTVYLQMNSLKPEDTAVYYCNARPARAVYIHTPTYRYDYWGQGTQVTVSS
polyreactivity (PSR sort gate): high polyreactivity

QVQLVESGGGLVQAGGSLRLSCAASGLTFYVNAMGWYRQAPGKEMELVAAITRGGSTNYADSVKGRFTISRDNAKNTVYLQMNSLKPVDTAVYYCNARKRYHSRYSGGYREGYWGQGTQVTVSS
polyreactivity (PSR sort gate): low polyreactivity

QVHLQESGGGLVQACGSQRLSCAARGSISEGQDMGWYRRAPGKEREFVAGIAPGATTYYADSVRGRFTISRDNANNTVSLQMNSLKPEDTAVYYCAARTVTETDHDYWGQGTQVTVSS
polyreactivity (PSR sort gate): low polyreactivity

QVQLVESGGGLVQAGGSLRLSCAASGFIFTFYAMGWYRQAPGKEREFVASIDWGDGSTYYADSVKGRFTISRDNAKNTVYLQMNSLKPEDTAVYYCATDVYFLSSEYWGQGTQVTVSS
polyreactivity (PSR sort gate): low polyreactivity

QVQLVESGGGFFQAGGSLRLSCAASGSTFVYNAMGWYRQAPGKERELVAAISRNGGRTYYADSVKGRFTISRDNAKNTVYFQMNSLKPEDTAVYYCAADYRVQLRKEYDYWGQGTQVTVSS
polyreactivity (PSR sort gate): high polyreactivity

QVQLVESGGGLVQAGGSLRLSCAASGSTFLGYDMGWYRHAPGKERELVATISKSGGSTHYADSVKGRFTISRDNAKNTVYLQMNSLKPEDTAVYYCAADYYQRYYKKSGEYDYWGQGTQVTVSS
polyreactivity (PSR sort gate): low polyreactivity

QVQLVESGGRLVQAGGSIRLSCAASGSIFVQYAMGWYRPAPGKERELVAAIDFSDTSTYYADSVKGLFTISRDNAKITVYLQMNSLKPEDTAVYYCAAEEDSPSRSAIAVEEYLGQGTQVTVSS
polyreactivity (PSR sort gate): low polyreactivity

QVQLVESGGGLVQAGGSLRLSCAASGFTFSAYTMGWYRQAPGKERELVAAINWSAANTYYADSVKGRFTISRDNAKNTVSLQMNSLKPEDTAVYYCNAEDDYTYDRSFGGYKYDYWGQGTQVTVSS
polyreactivity (PSR sort gate): low polyreactivity
